Where “and” joins values, the source holds several entries; their conditions need not be identical. Equal values may be shown once.
What was measured:
[1] = biological target: HIV CA protein (p24) (human immunodeficiency virus (HIV)); test: co-sedimentation
SEC-MALS = biological target: the molecule itself; test: SEC-MALS

| Molecule | critical concentration [1] | stoichiometry N (SEC-MALS) |
| --- | --- | --- |
| HIV CA protein (p24) (natural protein) | 10 µM |  |
| Rous sarcoma virus (RSV) CA protein, wild type (natural protein) PVVIKTEGPAWTPLEPKLITRLADTVRTKGLRSPITMAEVEALMSSPLLPHDVTNLMRVILGPAPYALWMDAWGVQLQTVIAAATRDPRHPANGQGRGERTNLNRLKGLADGMVGNPQGQAALLRPGELVAITASALQAFREVARLAEPAGPWADIMQGPSESFVDFANRLIKAVEGSDLPPSARAPVIIDCFRQKSQPDIQQLIRTAPSTLTTPGEIIKYVLDRQKTAPLTDQGIA |  | 2 and 3 and 4 |
